In US20250346634A1, “CYCLIC PEPTIDES FOR TARGETING EPIDERMAL GROWTH FACTOR RECEPTOR AND MUTATIONS THEREOF FOR DRUG DELIVERY” (priority 2022, published 2025):
Bridge positions count the residues as written; N and C are the ends. Square brackets hold non-standard residues; d marks the D form. Peptide text beside a SMILES is read from it. * marks the point of attachment. ξ: configuration not given here. FITC = O=C1OC2(c3ccc(O)cc3Oc3cc(O)ccc32)c2ccc(NC(=S)*)cc21; ξThr(3R) = C[C@@H](O)C(N)C(=O)O; GABA = NCCCC(=O)O

How the values were obtained:
[1] = system: H1299, H1975 and DKMG cells; assay: Phage display biopanning with NGS, selection of EGFR-specific peptides; assay type: cell-based; conditions: 3 rounds of biopanning, K562-derived sequences excluded
Procedure: A heptapeptide phage display library (Ph.D.-C7C Phage Display Library Kit, New England Biolabs, USA) was used for the in vitro biopanning experiments. All cell lines were individually incubated with phages from the stock library. […] Adherent cells (H1299, […] and DKMG) were plated at a density of 10^5 cells/ml in a 6-well plate. When the culture reached 80% confluence, the first well was incubated with phage library (10^11 pfu/10 μl) for 1 h at 37° C. with gentle stirring. The medium containing unbound phage was collected and transferred to the second, similar well and incubated again. The procedure was repeated with the third well. Cells in the third wells were washed four times with 0.5% Tween-20 in PBS. Then, 0.5 ml of elution buffer (0.2 M glycine-HCl, pH 2.2) was added and incubated for 10 min at 4° C.; the pH was neutralized by addition of 75 μl of 1 M Tris-HCl buffer, pH 9.0. The supernatant containing cell surface binding phage was collected. The cells were then lysed by incubation for 1 h at 4° C. with 2 ml of 30 mM Tris-HCl and 1 mM EDTA, pH 8.0. The medium was collected and centrifuged at 1,500 rpm for 5 min and the supernatant containing cell-internalized phage was transferred to a new tube. The internalized and surface-bound phages were amplified according to the manufacturer's instructions. An aliquot of the phages was retained for sequencing (see below) and the remainder was subjected to two additional rounds of biopanning. […]
Finally, two groups of peptides were constructed; the first included sequences that were present in all three EGFR+ve cell lines and included about 416 sequences; the second was divided into three subgroups, one for each cell line, wherein the subgroup for H1299 included some 1666 sequences, the subgroup for H1975 included some 10437 sequences, the subgroup for DKMG included some 981 sequences. From this list, top eleven S—S bridged cyclic peptides sequences were selected by their count in the sequencing data (the highest number of reads). […]

H1299 cells = assay: XTT cytotoxicity assay on H1299 cells; assay type: cell-based; conditions: for IC50: H1299
Procedure: (§1) Cell growth in the presence of PDCs was measured by a commercial XTT assay kit (Cell Proliferation Kit, XTT based; Biological Industries, Israel). The cells (10^4 cells/well) were seeded in 96 well plates and incubated overnight in complete growth medium. The cells were washed and then cultured in 100 μl of new medium containing various concentrations of drug or peptides, for 24 h, 48 h, and 72 h. The XTT solution was added to each well and the plate was further incubated 2-3 h at 37° C. The optical density in the wells was measured at both 480 nm and 680 nm using a TECAN Infinite M200 ELISA reader. All the tests were done in triplicates, and each experiment was repeated three times.
(§2) The cytotoxicity of the Peptide-Drug conjugates (PDCs) was tested in a range of concentrations (0.5-50 μM) against H1299 and DKMG cells using two protocols. In the first protocol, cells were pre-incubated with P6, P9, P6-CPT, and P9-CPT for 6 hours, the medium was removed, and a fresh, drug-free complete medium was added for additional 24 h (designated as 6h24h) or 48 h (6h48h). In the second protocol, cells were exposed continuously to PDCs for 24 h, 48 h, and 72 hours.

DKMG cells = assay: XTT cytotoxicity assay on DKMG cells; assay type: cell-based
Procedure: as §1, §2

[2] = system: EGFR+ve cells (H1299, DKMG) versus K562 cells; assay: Flow cytometry internalization of peptide-FITC conjugates; assay type: cell-based; conditions: 2.5 μM FITC-labeled peptide
Excerpt: Analysis was done with FACS cell analyzer.

[3] = biological target: T1, EGFR variant III (EGFRvIII), on DKMG glioblastoma cells (human, UniProt P00533 25-1210); assay: flow cytometry, 2.5 uM FITC-peptide on DKMG cells (EGFR WT and EGFRvIII)
T1 construct: whole, on cells; DKMG cells express both wild type EGFR (92% of cells) and EGFRvIII (82%); All results on DKMG cells are written against this molecule; also called EGFR mutant; EGFRVIII DKMG

[4] = biological target: T2, epidermal growth factor receptor (EGFR), wild type (human, UniProt P00533 25-1210); assay: flow cytometry, 2.5 uM FITC-peptide on H1299 cells (EGFR overexpressing)
T2 construct: whole, on cells; The target is inferred from tumour cell lines that overexpress EGFR, compared with EGFR-negative cells; No purified receptor was used; also called EGFRWT; EGFR WT

| Molecule | binding result [3] | binding result [4] | further results |
| --- | --- | --- | --- |
| C[C@@H]1NC(=O)[C@@H](N)CSSC[C@@H](C(N)=O)NC(=O)[C@H](CCCNC(=N)N)NC(=O)CNC(=O)[C@@H]2CCCN2C(=O)[C@H]([C@@H](C)O)NC(=O)[C@H](Cc2ccc(O)cc2)NC(=O)[C@H](CCC(N)=O)NC1=O [Peptide P11] (H-CAQYTPGRC-NH2; disulfide 1-9) |  |  | Cell line (peptide specificity per cell line; source of the cells from which the peptide was identified) [1]: DKMG |
| CC[C@@]1(O)C(=O)OCc2c1cc1n(c2=O)Cc2cc3ccccc3nc2-1 [CPT, (S)-(+)-camptothecin, reference compound] |  |  | IC50 (H1299 cells; Homo sapiens, NCI-H1299, 6 w 48 h (6 h pre-incubation, then 48 h drug-free medium)): 6.7 ± 1.8 µM; IC50 (DKMG cells; 6 w 48 h (6 h pre-incubation, then 48 h drug-free medium)): 8.5 ± 1 µM; IC50 (DKMG cells; 24 h continuous exposure): 25 µM |
| CC(C)[C@@H]1NC(=O)[C@@H](NC(=O)CCCNC(=S)Nc2ccc3c(c2)C(=O)OC32c3ccc(O)cc3Oc3cc(O)ccc32)CSSC[C@@H](C(N)=O)NC(=O)[C@H](CCCNC(=N)N)NC(=O)CNC(=O)[C@H](Cc2ccccc2)NC(=O)[C@H](CCCNC(=N)N)NC(=O)[C@H](Cc2c[nH]c3ccccc23)NC(=O)[C@H](CCCNC(=N)N)NC1=O [FITC-labeled P3] ({FITC-GABA}-CVRWRFGRC-NH2; disulfide 1-9) |  |  | internalization (flow cytometry) [2]: internalized only into to EGFR+ve cells |
| CC[C@H](C)[C@@H]1NC(=O)[C@H](Cc2ccc(O)cc2)NC(=O)[C@H](CO)NC(=O)CNC(=O)[C@@H]2CCCN2C(=O)[C@H](C(C)C)NC(=O)[C@H](Cc2cnc[nH]2)NC(=O)[C@@H](N)CSSC[C@@H](C(N)=O)NC1=O [Peptide P6] (H-CHVPGSYIC-NH2; disulfide 1-9) |  |  | cytotoxicity (H1299 cells): did not demonstrate cytotoxicity; IC50 (H1299 cells; 24 h continuous exposure): 27.5 ± 0.8 µM; IC50 (H1299 cells; 48 h continuous exposure): 32 µM; IC50 (H1299 cells; 72 h continuous exposure): 28.8 µM |
| CC(C)C[C@@H]1NC(=O)[C@H](Cc2c[nH]c3ccccc23)NC(=O)[C@H](CC(N)=O)NC(=O)[C@@H](N)CSSC[C@@H](C(N)=O)NC(=O)[C@H](CCC(=O)O)NC(=O)C([C@@H](C)O)NC(=O)[C@H](CCCNC(=N)N)NC(=O)[C@H](CO)NC1=O (stereo partly drawn) [Peptide P10] (H-CNWLSR[ξThr(3R)]EC-NH2; disulfide 1-9) |  |  | Cell line (peptide specificity per cell line; source of the cells from which the peptide was identified) [1]: DKMG |
| {FITC-GABA}-CVNAMQSYC-NH2 (disulfide 1-9; SMILES CSCC[C@@H]1NC(=O)[C@H](C)NC(=O)[C@H](CC(N)=O)NC(=O)[C@H](C(C)C)NC(=O)[C@@H](NC(=O)CCCNC(=S)Nc2ccc3c(c2)C(=O)OC32c3ccc(O)cc3Oc3cc(O)ccc32)CSSC[C@@H](C(N)=O)NC(=O)[C@H](Cc2ccc(O)cc2)NC(=O)[C@H](CO)NC(=O)[C@H](CCC(N)=O)NC1=O, also called FITC-P9; FITC-labeled P9) [FITC-labeled cyclic peptide P9, c(CVNAMQSYC)] | binds | binds |  |
| {FITC-GABA}-CVRWRFGRC-NH2 (disulfide 1-9; SMILES CC(C)[C@@H]1NC(=O)[C@@H](NC(=O)CCCNC(=S)Nc2ccc3c(c2)C(=O)OC32c3ccc(O)cc3Oc3cc(O)ccc32)CSSC[C@@H](C(N)=O)NC(=O)[C@H](CCCNC(=N)N)NC(=O)CNC(=O)[C@H](Cc2ccccc2)NC(=O)[C@H](CCCNC(=N)N)NC(=O)[C@H](Cc2c[nH]c3ccccc23)NC(=O)[C@H](CCCNC(=N)N)NC1=O, also called FITC-labeled P3) [FITC-labeled cyclic peptide P3, c(CVRWRFGRC)] | binds | binds |  |
| {FITC-GABA}-CLAVEVRPC-NH2 (disulfide 1-9; SMILES CC(C)C[C@@H]1NC(=O)[C@@H](NC(=O)CCCNC(=S)Nc2ccc3c(c2)C(=O)OC32c3ccc(O)cc3Oc3cc(O)ccc32)CSSC[C@@H](C(N)=O)NC(=O)[C@@H]2CCCN2C(=O)[C@H](CCCNC(=N)N)NC(=O)[C@H](C(C)C)NC(=O)[C@H](CCC(=O)O)NC(=O)[C@H](C(C)C)NC(=O)[C@H](C)NC1=O, also called FITC-labeled P4) [FITC-labeled cyclic peptide P4, c(CLAVEVRPC)] | binds | binds |  |
| {FITC-GABA}-CSAETVESC-NH2 (disulfide 1-9; SMILES CC(C)[C@@H]1NC(=O)[C@H]([C@@H](C)O)NC(=O)[C@H](CCC(=O)O)NC(=O)[C@H](C)NC(=O)[C@H](CO)NC(=O)[C@@H](NC(=O)CCCNC(=S)Nc2ccc3c(c2)C(=O)OC32c3ccc(O)cc3Oc3cc(O)ccc32)CSSC[C@@H](C(N)=O)NC(=O)[C@H](CO)NC(=O)[C@H](CCC(=O)O)NC1=O, also called FITC-labeled P2) [FITC-labeled cyclic peptide P2, c(CSAETVESC)] | binds | binds |  |
| {FITC-GABA}-CAQYTPGRC-NH2 (disulfide 1-9; SMILES C[C@@H]1NC(=O)[C@@H](NC(=O)CCCNC(=S)Nc2ccc3c(c2)C(=O)OC32c3ccc(O)cc3Oc3cc(O)ccc32)CSSC[C@@H](C(N)=O)NC(=O)[C@H](CCCNC(=N)N)NC(=O)CNC(=O)[C@@H]2CCCN2C(=O)[C@H]([C@@H](C)O)NC(=O)[C@H](Cc2ccc(O)cc2)NC(=O)[C@H](CCC(N)=O)NC1=O, also called FITC-labeled P11) [FITC-labeled cyclic peptide P11, c(CAQYTPGRC)] | binds | binds |  |
| {FITC-GABA}-CSALWASHC-NH2 (disulfide 1-9; SMILES CC(C)C[C@@H]1NC(=O)[C@H](C)NC(=O)[C@H](CO)NC(=O)[C@@H](NC(=O)CCCNC(=S)Nc2ccc3c(c2)C(=O)OC32c3ccc(O)cc3Oc3cc(O)ccc32)CSSC[C@@H](C(N)=O)NC(=O)[C@H](Cc2c[nH]cn2)NC(=O)[C@H](CO)NC(=O)[C@H](C)NC(=O)[C@H](Cc2c[nH]c3ccccc23)NC1=O, also called FITC-labeled P8) [FITC-labeled cyclic peptide P8, c(CSALWASHC)] | binds | binds |  |
| {FITC-GABA}-CPNDSYHQC-NH2 (disulfide 1-9; SMILES NC(=O)CC[C@@H]1NC(=O)[C@H](Cc2c[nH]cn2)NC(=O)[C@H](Cc2ccc(O)cc2)NC(=O)[C@H](CO)NC(=O)[C@H](CC(=O)O)NC(=O)[C@H](CC(N)=O)NC(=O)[C@@H]2CCCN2C(=O)[C@@H](NC(=O)CCCNC(=S)Nc2ccc3c(c2)C(=O)OC32c3ccc(O)cc3Oc3cc(O)ccc32)CSSC[C@@H](C(N)=O)NC1=O, also called FITC-labeled P5) [FITC-labeled cyclic peptide P5, c(CPNDSYHQC)] | binds | binds |  |
